This is an account of results in paper PMC12102759.

B1: NYNRIN peptide 1032-1047 (Protein NYNRIN), 16-mer library wild type / NSP3 UBl1 (ORF1ab Nsp3a Ub1, residues 819-925) (parent)
chain 1: PSLSEEILRALSLHDP
chain 2: APTKVTFGDDTVIEVQGYKSVNITFELDERIDKVLNEKCSAYTVELGTEVNEFACVVADAVIKTLQPVSELLTPLGIDLDEWSMATYYLFDESGEFKLASHMYCSFY
B2: NEK9 peptide 736-751 (Serine/threonine-protein kinase Nek9), 16-mer library wild type / NSP9 (ORF1ab Nsp9, residues 4141-4253) (parent)
chain 1: NSSGLSIGTVFQSSSP
chain 2: NNELSPVALRQMSCAAGTTQTACTDDNALAYYNTTKGGRFVLALLSDLQDLKWARFPKSDGTGTIYTELEPPCRFVTDTPKGPKVKYLYFIKGLNNLNRGMVLGSLAATVRLQ

Variants of B1 are the subject of the first test. The settings on record: with NSP3 UBl1 (ORF1ab Nsp3a Ub1, residues 819-925); bait immobilised on MaxiSorp plates (10 µg), library pre-cleared on GST, 2 h binding at 4 °C, five washes; one round per day, days 1-4; value from days 2 and 3; keep out of graded; scale: average fractional NGS count over selection days 2 and 3.
On to chain 1 PSLSEQILRALSLHDP [chain 1 E6Q], for which the screen value amounted to 2.97e-05.
Consider chain 1 PSLSEEILRALSLFDP [chain 1 H14F], for which the screen value was found to be 7.34e-06.
The same measure, in the same setting: to chain 1 PSLSEEILRALSLNDP [chain 1 H14N] belongs 0; to chain 1 PSLSEEILRALSLHGP [chain 1 D15G], 0.
On the same count and under the same terms, to chain 1 PSLSEEILRALSLHEP [chain 1 D15E] belongs 0; to chain 1 PSLSEEILRALSLHKP [chain 1 D15K], 0.
In the case of chain 1 PSLSEEILRALSPHDP [chain 1 L13P], the screen value is 0.

Variants of B2 are the subject of a further test. The note with it: with NSP9 (ORF1ab Nsp9, residues 4141-4253); bait immobilised on MaxiSorp plates (10 µg), library pre-cleared on GST, 2 h binding at 4 °C, five washes; one round per day, days 1-4; value from days 2 and 3; keep out of graded; scale: average fractional NGS count over selection days 2 and 3.
Consider chain 1 NSSGLSIGTDFQSSSP [chain 1 V10D], for which the screen value is 0.000207.
Same read-out and setting: to chain 1 NSSGLSIGTVFQSSSM [chain 1 P16M] belongs 0.
chain 1 NSSGLSIGTVFQSSSF [chain 1 P16F]: the screen value was 0.
Same read-out and setting: in the case of chain 1 NSSGLSIGTVFQSSSD [chain 1 P16D] it was 0.000477.
Turning to chain 1 NSSGLSIGTVFQSSSK [chain 1 P16K], the screen value turned out to be 0.000119.
The same measure, in the same setting: in the case of chain 1 NSSGLSIGTVFQSSSQ [chain 1 P16Q] it was 0; in that of chain 1 NSSGLSIGTVFQSSST [chain 1 P16T], 2.95e-05.
Regarding chain 1 NSSGLSIGTVFQSSSN [chain 1 P16N], the screen value was 4.17e-05.
The same measure, in the same setting: to chain 1 NSSGLSIGTVFQSSSV [chain 1 P16V] belongs 0.000367; to chain 1 NSSGLSIGTVFQSSSL [chain 1 P16L], 3.5e-05; to chain 1 NSSGLQIGTVFQSSSP [chain 1 S6Q], 0.
The same measure, in the same setting: to chain 1 NSSGLFIGTVFQSSSP [chain 1 S6F] belongs 0; to chain 1 NSSGLYIGTVFQSSSP [chain 1 S6Y], 0; to chain 1 NSSGLLIGTVFQSSSP [chain 1 S6L], 9.77e-05.
For the variant chain 1 NSSGLAIGTVFQSSSP [chain 1 S6A], the screen value was 0.000439.
For chain 1 NSSGLVIGTVFQSSSP [chain 1 S6V], the screen value is 0.
On the same count and under the same terms, to chain 1 NSSGLWIGTVFQSSSP [chain 1 S6W] belongs 0; to chain 1 NSSGLSIGTVFYSSSP [chain 1 Q12Y], 1.21e-05; to chain 1 NSSGLSIGTVFASSSP [chain 1 Q12A], 1.81e-05.
On the same count and under the same terms, in the case of chain 1 NSSGLSIGTVFVSSSP [chain 1 Q12V] it was 0; in that of chain 1 NSSGLSIGTVFNSSSP [chain 1 Q12N], 0.000424.
Regarding chain 1 NSSGLSIGTVFMSSSP [chain 1 Q12M], the screen value was determined as 1.76e-05.
As to chain 1 NSSGLSIGTVFSSSSP [chain 1 Q12S], the screen value is 4.58e-05.
Turning to chain 1 NSSGLSIGTVFISSSP [chain 1 Q12I], the screen value was 0.
chain 1 NSSGLSIGTVFESSSP [chain 1 Q12E]: the screen value was found to be 0.00594.
With chain 1 NSSGLSIGTVFDSSSP [chain 1 Q12D], the screen value was 3.3e-05.
Regarding chain 1 NSSGLSIGTVFPSSSP [chain 1 Q12P], the screen value amounted to 0.
With chain 1 NSSGLSIGTVFQSSGP [chain 1 S15G], the screen value turned out to be 3.5e-05.
On to chain 1 NSSGLSIGTVFQSSKP [chain 1 S15K], for which the screen value worked out at 0.
For the variant chain 1 NSSGLSIGTVFQSSIP [chain 1 S15I], the screen value is 4.92e-05.
The same measure, in the same setting: to chain 1 NSSGLSIGTVFQSSAP [chain 1 S15A] belongs 2.5e-05; to chain 1 NSSGLSIGTVFQSSMP [chain 1 S15M], 0.000159.
Take chain 1 NSSGLSIGTVFQSSLP [chain 1 S15L]: the screen value is 2.69e-05.
Take chain 1 NSSGLSIGTVFQASSP [chain 1 S13A]: the screen value turned out to be 0.
Consider chain 1 NSSGLSIGTVFQHSSP [chain 1 S13H], for which the screen value came out at 8.96e-05.
chain 1 NSSGLSIGTVFQTSSP [chain 1 S13T]: the screen value stood at 0.000105.
As for chain 1 NSSGLSIGTVFQESSP [chain 1 S13E], the screen value was found to be 0.000579.
For the variant chain 1 NSSGLSIGTVFQLSSP [chain 1 S13L], the screen value was 1.28e-05.
The same measure, in the same setting: to chain 1 NSSGLSIGTVFQMSSP [chain 1 S13M] belongs 0.
Turning to chain 1 NSSGLSIGTVFQGSSP [chain 1 S13G], the screen value stood at 1.34e-05.
Regarding chain 1 NSSGLSIGTVFQDSSP [chain 1 S13D], the screen value worked out at 0.000121.
On the same count and under the same terms, to chain 1 NSSGLSIGGVFQSSSP [chain 1 T9G] belongs 0.
The same measure, in the same setting: in the case of chain 1 NSSGLSIGHVFQSSSP [chain 1 T9H] it was 1.62e-05; in that of chain 1 NSSGLSIGPVFQSSSP [chain 1 T9P], 6.33e-05; in that of chain 1 NSSGLSIGSVFQSSSP [chain 1 T9S], 0.
On the same count and under the same terms, to chain 1 NSSGLSIGLVFQSSSP [chain 1 T9L] belongs 0; to chain 1 NSSGLSIGDVFQSSSP [chain 1 T9D], 0.00026; to chain 1 NSSGLSIGYVFQSSSP [chain 1 T9Y], 2.09e-05.
Consider chain 1 NSSGLSIGNVFQSSSP [chain 1 T9N], for which the screen value turned out to be 0.000187.
Regarding chain 1 NSSGLSIGEVFQSSSP [chain 1 T9E], the screen value amounted to 0.00124.
In the case of chain 1 NSKGLSIGTVFQSSSP [chain 1 S3K], the screen value is 0.
As for chain 1 NSDGLSIGTVFQSSSP [chain 1 S3D], the screen value was 0.000508.
Regarding chain 1 NSHGLSIGTVFQSSSP [chain 1 S3H], the screen value stood at 3.04e-05.
In the case of chain 1 NSMGLSIGTVFQSSSP [chain 1 S3M], the screen value is 5.44e-05.
Still for that read-out and setting: in the case of chain 1 NSQGLSIGTVFQSSSP [chain 1 S3Q] it was 0.000703; in that of chain 1 NSVGLSIGTVFQSSSP [chain 1 S3V], 0; in that of chain 1 NSEGLSIGTVFQSSSP [chain 1 S3E], 0.000394.
chain 1 NSWGLSIGTVFQSSSP [chain 1 S3W]: the screen value stood at 0.000185.
On the same count and under the same terms, to chain 1 NSSGRSIGTVFQSSSP [chain 1 L5R] belongs 0; to chain 1 NSSGQSIGTVFQSSSP [chain 1 L5Q], 0.
For the variant chain 1 NSSGVSIGTVFQSSSP [chain 1 L5V], the screen value worked out at 4.92e-05.
As to chain 1 NSSGKSIGTVFQSSSP [chain 1 L5K], the screen value stood at 0.
Consider chain 1 NSSGLSITTVFQSSSP [chain 1 G8T], for which the screen value is 0.
On to chain 1 NSSGLSIYTVFQSSSP [chain 1 G8Y], for which the screen value is 0.
For the variant chain 1 NSSGLSIDTVFQSSSP [chain 1 G8D], the screen value came out at 0.000107.
With chain 1 NSSWLSIGTVFQSSSP [chain 1 G4W], the screen value came to 0.
Turning to chain 1 NSSYLSIGTVFQSSSP [chain 1 G4Y], the screen value worked out at 0.
Take chain 1 NSSILSIGTVFQSSSP [chain 1 G4I]: the screen value was found to be 0.
With chain 1 NQSGLSIGTVFQSSSP [chain 1 S2Q], the screen value is 2.69e-05.
As for chain 1 NHSGLSIGTVFQSSSP [chain 1 S2H], the screen value amounted to 0.
For the variant chain 1 NGSGLSIGTVFQSSSP [chain 1 S2G], the screen value is 2.56e-05.
Take chain 1 NPSGLSIGTVFQSSSP [chain 1 S2P]: the screen value was 0.00012.
Same read-out and setting: in the case of chain 1 NSSGLSGGTVFQSSSP [chain 1 I7G] it was 0.
Take chain 1 NSSGLSLGTVFQSSSP [chain 1 I7L]: the screen value was determined as 9.86e-05.
The same measure, in the same setting: to chain 1 NSSGLSSGTVFQSSSP [chain 1 I7S] belongs 0.
Take chain 1 NSSGLSIGTVFQSESP [chain 1 S14E]: the screen value is 0.
As to chain 1 NSSGLSIGTVFQSDSP [chain 1 S14D], the screen value worked out at 7.14e-05.
Take chain 1 NSSGLSIGTVFQSFSP [chain 1 S14F]: the screen value turned out to be 0.000194.
Consider chain 1 NSSGLSIGTVFQSTSP [chain 1 S14T], for which the screen value came out at 0.
For the variant chain 1 NSSGLSIGTVFQSISP [chain 1 S14I], the screen value was determined as 0.0016.
Regarding chain 1 NSSGLSIGTVFQSNSP [chain 1 S14N], the screen value stood at 3.83e-05.
For the variant chain 1 NSSGLSIGTVMQSSSP [chain 1 F11M], the screen value was 0.000187.
chain 1 NSSGLSIGTVGQSSSP [chain 1 F11G]: the screen value amounted to 0.000245.
For the variant chain 1 NSSGLSIGTVEQSSSP [chain 1 F11E], the screen value amounted to 0.000183.
The same measure, in the same setting: in the case of chain 1 NSSGLSIGTVIQSSSP [chain 1 F11I] it was 0.000239; in that of chain 1 NSSGLSIGTVPQSSSP [chain 1 F11P], 0.0001; in that of chain 1 NSSGLSIGTVRQSSSP [chain 1 F11R], 0.
